Reference: patent publication US20220249633A1

B1: … (SEQ ID NO: 364) (peptide)
peptide: KYLNENQLSQL
B2: … (SEQ ID NO: 365) (peptide)
peptide: VFIDHPVHL
B3: … (SEQ ID NO: 366) (peptide)
peptide: QYLELAHSL
B4: … (SEQ ID NO: 367) (peptide)
peptide: LYQDHMQYI
B5: … (SEQ ID NO: 368) (peptide)
peptide: KYQNVKHNL
B6: … (SEQ ID NO: 369) (peptide)
peptide: VYTHEVVTL
B7: … (SEQ ID NO: 370) (peptide)
peptide: RFIGIPNQF
B8: … (SEQ ID NO: 371) (peptide)
peptide: AYSHLRYVF
B9: … (SEQ ID NO: 372) (peptide)
peptide: VYVIEPHSMEF
B10: … (SEQ ID NO: 373) (peptide)
peptide: GYISNGELF
B11: … (SEQ ID NO: 374) (peptide)
peptide: VFLPRVTEL
B12: … (SEQ ID NO: 375) (peptide)
peptide: KYTDYILKI
B13: … (SEQ ID NO: 376) (peptide)
peptide: VYTPVASRQSL
B14: … (SEQ ID NO: 377) (peptide)
peptide: QYTPHSHQF
B15: … (SEQ ID NO: 378) (peptide)
peptide: VYIAELEKI
B16: … (SEQ ID NO: 379) (peptide)
peptide: VFIAQGYTL
B17: … (SEQ ID NO: 380) (peptide)
peptide: VYTGIDHHW
B18: … (SEQ ID NO: 381) (peptide)
peptide: KYPASSSVF
B19: … (SEQ ID NO: 382) (peptide)
peptide: AYLPPLQQVF
B20: … (SEQ ID NO: 383) (peptide)
peptide: RYKPGEPITF
B21: … (SEQ ID NO: 384) (peptide)
peptide: RYFDVGLHNF
B22: … (SEQ ID NO: 385) (peptide)
peptide: QYIEELQKF
B23: … (SEQ ID NO: 386) (peptide)
peptide: TFSDVEAHF
B24: … (SEQ ID NO: 387) (peptide)
peptide: KYTEKLEEI
B25: … (SEQ ID NO: 388) (peptide)
peptide: IYGEKTYAF

Biological target: HLA-A*24 (human)
Experiment: UV-exchange ELISA, exchange yield grade

peptide exchange yield [%] | Binder
50 to 75 | B1
> 75 | B2
50 to 75 | B3
20 to 49 | B4
50 to 75 | B5
50 to 75 | B6
50 to 75 | B7
20 to 49 | B8
50 to 75 | B9
50 to 75 | B10
20 to 49 | B11
50 to 75 | B12
50 to 75 | B13
50 to 75 | B14
50 to 75 | B15
> 75 | B16
> 75 | B17
50 to 75 | B18
50 to 75 | B19
50 to 75 | B20
50 to 75 | B21
50 to 75 | B22
50 to 75 | B23
50 to 75 | B24
50 to 75 | B25
